One assay addresses gp41-longNC (HIV-1) (UniProt P04578). In words: AUC.
In the next assay the target is gp41-longNC. Nature of the assay: BLI. Conditions: pH 4.0; second pH 7.0; 0.1% DPC.

Results on three substances are retold here after article PMC4348151.

Substance “gp41-longNC (from UniProt P04578) (domain or fragment)” came in with a stoichiometry N with gp41-longNC (HIV-1) of 3.
For the substance 2F5, the “fold difference in KD at pHs 4 and 7” value with gp41-longNC is given as 4,000-fold.
As to 4E10, the fold difference with gp41-longNC was 30-fold.
